Assay results as given in the nanobody polyreactivity screen of Harvey et al. (2022).

Test: yeast display, Sf9 membrane polyspecificity reagent, FACS + sequencing; frameworks hold sequencing errors
Method in brief: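 Nanobodies from a synthetic yeast display library (Saccharomyces cerevisiae BJ5465), induced 36–48 hours with galactose, were stained 1 hour at 4 °C with 10% biotinylated, detergent-solubilized Sf9 membrane reagent, enriched on streptavidin microbeads, then FACS-sorted. Anti-HA (expression) and streptavidin (reagent binding) fluorescence set low and high (top ~1%) gates. Polyreactivity labels come from the gate of origin. Genes were colony-PCR amplified, MiSeq 2 × 250 sequenced and filtered by CDR length.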

| Sequence | polyreactivity (PSR sort gate) |
| --- | --- |
| QVQLVESGGGLVQAGGSLRLSCAASGFIFTRNAMAWYRQAPGKEREMVAGISVRGGATYYADSVKGRFTLSRDNAKNSFYLQMNSLKPEDTAVYYCAARYWRGPRYDYWGQGTKVTVSS | high polyreactivity |
| QVQLVESGGGLVQAGGSLRLSCAASGRTLWYYTMGWYRQAPGKERELVADITRGTSTNYADSVKGRFTISRDNAKNTVYLQMNSLKPEDTAVYHCNRAHGRSRYSRDYDSWGQGTQVTVSS | low polyreactivity |
| QVQLVESGGGLVQAGGSLRLSCAASGITFNGYVMGWYRQAPGKERELVAAITSGARTYYADSVKGRFTISRDNAKNTVYLQMNSLKPEDTAVYYCAASIWLYRYYYWGQVTQVTVSS | high polyreactivity |
| QVQLVESGGGLVQAGGRLRLSCAASGITFRYYAMGWYRQAPGKERELVAAITRSGTSTYYADSVKGRFTISRDNAKNTVYLQMNSLKPEDTAVYYCNAEYYHSSTGDDFDYWGQGTQVTVSS | low polyreactivity |
| QVQLVESGGGLVQAGGSLRLSCAASGSIFTQYTMGWYRQAPGKERELVAAISRSGGRTYYADSVKGRFTISRDNSKNTVYLQMKSLKPEDTAVYYCAAEYTDKYEYWGQGTQVTVSS | high polyreactivity |
| QVQLVESGGGLVQAGGSLRLSCAASGSIFVPNAMGWYRQAPGNERELVADLTRRGGSTYYADSVKGRFTISRDNAKNTVYLQMNSLKPEDTAVYYCNATYLTRSTRLSDFDYWGQGTQVTVSS | high polyreactivity |
| QVQLVESGGGLVQAGGSLRLSCAASGSIFGKNAMGWYRQAPGKERELVAAITWSGGSTYYADSVKGRFTISRDNAKNTVYLQMNSLKPEDTAVYYCNAVRVRVTSHRIRQLDYGYWGQGTQVTVSS | low polyreactivity |
| QVQLVESGGGLVQAGGSLRLSCAASGSIFWFNAMGWYRQAPGKEREFVASISRSGGTTYYAHSVKGRFTISRDNAKNTVYLQMNSLKPEDTAVYYFNARAYGNGLGTGYFGKHRYDYWGQGTQVTVSS | low polyreactivity |
| QVQLVESGGGLVQAGGSLRLSCAASGSTFPYNAMGWYRQAPGKEREFVAAITSDDTTNYADSVKGRFTISRDNAKKTVYLQMNSLKPEDTAVYYCAAEYRYPYLRGAGDYWGQGTQVTVSS | low polyreactivity |
| QVQLVESGGGLVQAGGSLRLSCAASGSIFQVYSMGWYRQAPGKEREFVAAISFSGGGTYYADSVKGRFTISRDNAKNTVYLQMNSMKPEDTAVYYCAADVSGWEYDYWGQGTQVTVSS | low polyreactivity |
| QVQLVESGGGLVQAGGSLRLSCAASGFTFTYNAMGWYRQAPGKERELVAGITLGSRTNYADSVKGRFTISRDNAKNTVYLQMNSLKPEDTAVYYCAVRYYGGYGYWGQGTQVTVSS | high polyreactivity |
| QVQLVESGGCLVQAGGILRLSCAASGYTFFLYAMGWYRQAPGKERELVAAINNGGGSTYYADSVKGRFTISRDNAKNTVYLQMNSLKPEDTAVYYCAVRVARGYRYGYWGQGTQVTVSS | high polyreactivity |
| QVQLVESGAGLVQAGGSLRLSCAASGSTFAINAMGWYRQAPGKERELVAAISSRGSTNYADSVKGRFTISRDNAKNTVYLQMNSLKPEDTAVYYCAADRVWGTPQAYVPSQFDYWGQGTQVTVSS | low polyreactivity |
| QVQLVESGGGLVQAGGSLRLSCAASGFIFYRYAIGWYIQAPGKEREFVASISGSGGRTYYADSVKGRFTISRDNAKNTVYLQMNTLKPEDTAGYYCAADRYSAYLYWDEYWGQGTQVTVSS | high polyreactivity |
| QVQLVESGGGLVQAGGSLRLSCAASGFTFPYYAMGWYRQAPGKERELVAAITSSGGSTYYADSVKGRFTISRDNAKNTVYLQMNSLKPEDTAVYYCAVDAYYYKWYDYWGQGTQVTVSS | high polyreactivity |
| QVHLVESGGGLVQAGGSLRLSCAASGFTITYNAMGWYRQAPGKEREFVAAITNNGSTYYADSVKGRFTISRDNAKNSVYLQMKSLKPEDTAVYYCAVDRGYYDEYNYWGQGTHVTVSS | low polyreactivity |
| QVQLVESGGGLVQAGGSLRLSCAASGFTFTENVMGWYRQAPGKEREFVAAITYIGGRTYYADSVKGRFTISRDNAKNSVYLQMNSLKPEDTAVYYCAADWAYYVASYLYYTFDYWGQGTQVTVSS | low polyreactivity |
